± gives the uncertainty stated by the source.
Test: protein stability index of a GFP-peptide fusion (yeast GPS) (PSI 1-4); higher = more stable; sorted into four equal gates, so the index is relative within each strain
How it was run: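 Sequencing reads from sorted gates were used to score each peptide. The library consisted of tiled 17-residue yeast protein peptides fused downstream of GFP on a Cherry-expressing plasmid, pooled and carried in yeast. Mid-log cultures in leucine-free medium were split into four equal gates by GFP/Cherry ratio, and each gate's plasmids were PCR-amplified and Illumina-sequenced. The protein stability index adds up, over all gates, the read frequency multiplied by the gate number.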

In the case of TLQDIGFYQIKKIVDSK [YMR129W/POM152], the protein stability index (doa10∆) is reported as 2.64 ± 0.095, the protein stability index (pdr5∆) is reported as 2.68 ± 0.1 and the protein stability index (san1∆) is reported as 2.89 ± 0.17. For the same sequence, the protein stability index (ubr1∆) was 2.97 ± 0.12.

Work on SLQRSKSSFVKESAVIS [SMC1] yielded a protein stability index (doa10∆) of 2.04 ± 0.11, a protein stability index (pdr5∆) of 2.27 ± 0.047 and a protein stability index (san1∆) of 2.17 ± 0.067. The protein stability index (ubr1∆) was 2.29 ± 0.039.

LESEAQKKATMSAEEAL [RPC34] gave a protein stability index (doa10∆) of 3.13 ± 0.096, a protein stability index (pdr5∆) of 3.26 ± 0.14 and a protein stability index (san1∆) of 3.04 ± 0.092. For the same sequence, the protein stability index (ubr1∆) was 3.58 ± 0.12.

In the case of KPALKVSKEGLYQLVDI [YMR129W/POM152], the protein stability index (doa10∆) is reported as 3.18 ± 0.13, the protein stability index (pdr5∆) is reported as 3.1 ± 0.12 and the protein stability index (san1∆) is reported as 3.14 ± 0.074. The protein stability index (ubr1∆) was 3.02 ± 0.082.

NQILMSVNFFVSLLKKN [RPL1A] gave a protein stability index (doa10∆) of 1.84 ± 0.052, a protein stability index (pdr5∆) of 2.35 ± 0.046 and a protein stability index (san1∆) of 2.15 ± 0.075. For the same sequence, the protein stability index (ubr1∆) was 2.39 ± 0.04.

Work on SYKMNSSAADITMESVH [PRP8] yielded a protein stability index (doa10∆) of 3.32 ± 0.11, a protein stability index (pdr5∆) of 3.19 ± 0.08 and a protein stability index (san1∆) of 3.21 ± 0.095. For the same sequence, the protein stability index (ubr1∆) was 3.17 ± 0.067.

QKDKSDTYKRFKYLLGV [ISW2] showed a protein stability index (doa10∆) of 1.59 ± 0.05, a protein stability index (pdr5∆) of 1.4 ± 0.062 and a protein stability index (san1∆) of 1.4 ± 0.1. It also gave a protein stability index (ubr1∆) of 1.58 ± 0.048.

With ATMSVFLQRIDFQIDGN [RRI2] the protein stability index (doa10∆) was 2.92 ± 0.081, the protein stability index (pdr5∆) was 2.99 ± 0.066 and the protein stability index (san1∆) was 2.95 ± 0.059. It also gave a protein stability index (ubr1∆) of 3.29 ± 0.058.

Sequence LLNEWSHNVDELLEHIE [RPN5] has a protein stability index (doa10∆) of 2.57 ± 0.12, a protein stability index (pdr5∆) of 1.9 ± 0.09 and a protein stability index (san1∆) of 2.13 ± 0.19. The protein stability index (ubr1∆) was 1.58 ± 0.061.

Work on EQKITEIEDGQDGGVTP [RPO21] yielded a protein stability index (doa10∆) of 3.36 ± 0.081, a protein stability index (pdr5∆) of 3.38 ± 0.067 and a protein stability index (san1∆) of 3.37 ± 0.048. For the same sequence, the protein stability index (ubr1∆) was 3.31 ± 0.067.

With PQIVVPDAQNELPKFIL [DIS3] the protein stability index (doa10∆) was 2.9 ± 0.049, the protein stability index (pdr5∆) was 3.09 ± 0.06 and the protein stability index (san1∆) was 2.92 ± 0.043. For the same sequence, the protein stability index (ubr1∆) was 2.98 ± 0.077.

Work on KRQAYAVSEKAGHQTSA [RPL4A] yielded a protein stability index (doa10∆) of 2.14 ± 0.12, a protein stability index (pdr5∆) of 1.4 ± 0.13 and a protein stability index (san1∆) of 1.65 ± 0.12. For the same sequence, the protein stability index (ubr1∆) was 2.34 ± 0.078.

For ENDTNMNETLNLKVELK [SMC4], the protein stability index (doa10∆) was 3.43 ± 0.2, the protein stability index (pdr5∆) was 3.17 ± 0.084 and the protein stability index (san1∆) was 3.09 ± 0.13. For the same sequence, the protein stability index (ubr1∆) was 2.99 ± 0.077.

TDSDFAKYHAKLNKKLQ [SRP68] gave a protein stability index (doa10∆) of 2.97 ± 0.059, a protein stability index (pdr5∆) of 3.12 ± 0.055 and a protein stability index (san1∆) of 2.84 ± 0.043. The protein stability index (ubr1∆) was 3 ± 0.05.

For EEQDVDMTGDEEQEEEP [RPC19], the protein stability index (ubr1∆) was 2.76 ± 0.28.

Sequence WDLSVEDALYLGKRSIL [PRE2] has a protein stability index (doa10∆) of 3.4 ± 0.06, a protein stability index (pdr5∆) of 3.34 ± 0.056 and a protein stability index (san1∆) of 3.17 ± 0.064. For the same sequence, the protein stability index (ubr1∆) was 3.39 ± 0.048.

Work on IQGISKMYSDDTLKDIS [BRN1] yielded a protein stability index (doa10∆) of 3.24 ± 0.17, a protein stability index (pdr5∆) of 3.35 ± 0.15 and a protein stability index (san1∆) of 3.37 ± 0.15. It also gave a protein stability index (ubr1∆) of 3.05 ± 0.17.

PQQPMVKTKTIELIDYD [RET1] gave a protein stability index (doa10∆) of 2.89 ± 0.14, a protein stability index (pdr5∆) of 3.18 ± 0.2 and a protein stability index (san1∆) of 2.94 ± 0.075. It also gave a protein stability index (ubr1∆) of 2.97 ± 0.058.

LSFTPTTVIGIRGSDQA [RPN2] gave a protein stability index (doa10∆) of 1.65 ± 0.089, a protein stability index (pdr5∆) of 1.61 ± 0.073 and a protein stability index (san1∆) of 1.78 ± 0.15. It also gave a protein stability index (ubr1∆) of 1.59 ± 0.062.

Work on NGFMESAIVNEDGLLEG [SOH1] yielded a protein stability index (san1∆) of 2.86 ± 0.23.

In the case of GSDKQMFTQIYLERIEL [YML103C/NUP188], the protein stability index (doa10∆) is reported as 2.5 ± 0.095, the protein stability index (pdr5∆) is reported as 2.36 ± 0.086 and the protein stability index (san1∆) is reported as 1.62 ± 0.23. It also gave a protein stability index (ubr1∆) of 1.53 ± 0.048.

YSAAKKIPDTYTANTSA [YAR002W/NUP60] showed a protein stability index (doa10∆) of 2.43 ± 0.11, a protein stability index (pdr5∆) of 2.19 ± 0.082 and a protein stability index (san1∆) of 2.2 ± 0.077. It also gave a protein stability index (ubr1∆) of 2.55 ± 0.038.

In the case of EEDVYLDPLARVSKDKK [FAS2], the protein stability index (doa10∆) is reported as 3.5 ± 0.11, the protein stability index (pdr5∆) is reported as 3.29 ± 0.11 and the protein stability index (san1∆) is reported as 3.46 ± 0.069. For the same sequence, the protein stability index (ubr1∆) was 3.47 ± 0.061.

With KKHKQKKVLEIDFFKTD [BRN1] the protein stability index (doa10∆) was 2.54 ± 0.037, the protein stability index (pdr5∆) was 2.67 ± 0.043 and the protein stability index (san1∆) was 2.83 ± 0.039. The protein stability index (ubr1∆) was 2.59 ± 0.035.

Sequence VSEVAKIMQEATQSGGV [PRE8] has a protein stability index (doa10∆) of 2.96 ± 0.11, a protein stability index (pdr5∆) of 2.77 ± 0.17 and a protein stability index (san1∆) of 2.77 ± 0.15. It also gave a protein stability index (ubr1∆) of 3.05 ± 0.097.

SSEYETINISLSFSWAI [NUT1] showed a protein stability index (doa10∆) of 1.51 ± 0.1, a protein stability index (pdr5∆) of 1.64 ± 0.16 and a protein stability index (san1∆) of 2.21 ± 0.13. For the same sequence, the protein stability index (ubr1∆) was 2.4 ± 0.13.

For VKEESQPDENTKEMDEV [SWI3], the protein stability index (doa10∆) was 3.3 ± 0.19, the protein stability index (pdr5∆) was 2.81 ± 0.24 and the protein stability index (san1∆) was 3.07 ± 0.17. For the same sequence, the protein stability index (ubr1∆) was 3.03 ± 0.11.

For FDYSVILNSIPAAANLD [YJL039C/NUP192], the protein stability index (doa10∆) was 1.48 ± 0.051, the protein stability index (pdr5∆) was 1.44 ± 0.083 and the protein stability index (san1∆) was 1.71 ± 0.079. It also gave a protein stability index (ubr1∆) of 1.26 ± 0.047.

For DSVENSSNILEDILYYS [SRB8], the protein stability index (doa10∆) was 2.92 ± 0.13, the protein stability index (pdr5∆) was 2.74 ± 0.073 and the protein stability index (san1∆) was 2.5 ± 0.058. It also gave a protein stability index (ubr1∆) of 2.72 ± 0.059.

SPFGAYGEAPTSPGFGV [RPO21] showed a protein stability index (doa10∆) of 2.87 ± 0.086, a protein stability index (pdr5∆) of 3.12 ± 0.052 and a protein stability index (san1∆) of 2.98 ± 0.076. For the same sequence, the protein stability index (ubr1∆) was 3.17 ± 0.034.

Sequence NQASTSKRVYKILSPTM [CDC53] has a protein stability index (doa10∆) of 2.58 ± 0.062, a protein stability index (pdr5∆) of 2.57 ± 0.05 and a protein stability index (san1∆) of 2.54 ± 0.051. For the same sequence, the protein stability index (ubr1∆) was 2.59 ± 0.067.

ATQVKTDNTVDKFDFYK [RPT3] gave a protein stability index (doa10∆) of 3.29 ± 0.12, a protein stability index (pdr5∆) of 2.98 ± 0.11 and a protein stability index (san1∆) of 3.26 ± 0.095. It also gave a protein stability index (ubr1∆) of 3.09 ± 0.099.

For GGPWFTDGELDIEFINS [RPC34], the protein stability index (doa10∆) was 3.14 ± 0.15, the protein stability index (pdr5∆) was 3.42 ± 0.12 and the protein stability index (san1∆) was 2.55 ± 0.21. The protein stability index (ubr1∆) was 3.17 ± 0.081.

LEAPVKSIENPTQTKGN [YLR335W/NUP2] gave a protein stability index (doa10∆) of 3.04 ± 0.077, a protein stability index (pdr5∆) of 3.17 ± 0.055 and a protein stability index (san1∆) of 3.15 ± 0.051. For the same sequence, the protein stability index (ubr1∆) was 2.95 ± 0.058.

EHFSDEETYEEKPQFKD [RPO26] gave a protein stability index (doa10∆) of 3.51 ± 0.1, a protein stability index (pdr5∆) of 3.35 ± 0.2 and a protein stability index (san1∆) of 3.25 ± 0.15. The protein stability index (ubr1∆) was 3.34 ± 0.1.

GLFGNKPNNTANTGGGL [YGL172W/NUP49] gave a protein stability index (doa10∆) of 3.66 ± 0.17, a protein stability index (pdr5∆) of 3.65 ± 0.13 and a protein stability index (san1∆) of 3.49 ± 0.062. For the same sequence, the protein stability index (ubr1∆) was 3.56 ± 0.11.

LESTIAETQGSKVVIDS [IRR1] showed a protein stability index (doa10∆) of 2.9 ± 0.1, a protein stability index (pdr5∆) of 3.03 ± 0.14 and a protein stability index (san1∆) of 3.06 ± 0.12. It also gave a protein stability index (ubr1∆) of 2.98 ± 0.12.

Work on DEVNDRSDISDSEGGLF [PCI8] yielded a protein stability index (doa10∆) of 3.33 ± 0.28, a protein stability index (pdr5∆) of 3.08 ± 0.16 and a protein stability index (san1∆) of 3.46 ± 0.072. It also gave a protein stability index (ubr1∆) of 3.06 ± 0.12.

Work on ATSQYLKQDLKKISSFK [YGL172W/NUP49] yielded a protein stability index (doa10∆) of 2.9 ± 0.064, a protein stability index (pdr5∆) of 2.56 ± 0.064 and a protein stability index (san1∆) of 3.04 ± 0.051. It also gave a protein stability index (ubr1∆) of 3.06 ± 0.042.

In the case of PLKLSGEGPFTVKFKHM [YMR129W/POM152], the protein stability index (doa10∆) is reported as 2.92 ± 0.064, the protein stability index (pdr5∆) is reported as 2.93 ± 0.064 and the protein stability index (san1∆) is reported as 2.75 ± 0.086. It also gave a protein stability index (ubr1∆) of 2.72 ± 0.076.

In the case of LTRFSHDADLEVSMNSI [RPN1], the protein stability index (doa10∆) is reported as 3.24 ± 0.099, the protein stability index (pdr5∆) is reported as 3.14 ± 0.056 and the protein stability index (san1∆) is reported as 3.08 ± 0.05. For the same sequence, the protein stability index (ubr1∆) was 3.1 ± 0.037.

Sequence LDALVDCENFFNYVQEC [YJL039C/NUP192] has a protein stability index (doa10∆) of 3.37 ± 0.12, a protein stability index (pdr5∆) of 3.43 ± 0.084 and a protein stability index (san1∆) of 3.44 ± 0.079. The protein stability index (ubr1∆) was 3.41 ± 0.065.

In the case of IISTAIADSTHVKRITK [ECM29], the protein stability index (doa10∆) is reported as 2.94 ± 0.1, the protein stability index (pdr5∆) is reported as 2.95 ± 0.092 and the protein stability index (san1∆) is reported as 2.6 ± 0.1. For the same sequence, the protein stability index (ubr1∆) was 3.13 ± 0.078.

With VIIRRLKTRDWIVVLPW [POP1] the protein stability index (doa10∆) was 1.9 ± 0.072, the protein stability index (pdr5∆) was 1.46 ± 0.13 and the protein stability index (san1∆) was 1.98 ± 0.15. The protein stability index (ubr1∆) was 1.82 ± 0.057.

With RAASVGSLKLIELLCGL [NAS6] the protein stability index (doa10∆) was 2.18 ± 0.075, the protein stability index (pdr5∆) was 2.13 ± 0.11 and the protein stability index (san1∆) was 1.94 ± 0.11. It also gave a protein stability index (ubr1∆) of 1.83 ± 0.063.

From the supplement of paper PMC9732359
